From patent publication US5180678A, “Uses of substantially pure interleukin-9 receptor” (Ludwig Institute for Cancer Research, priority 1992, dated 1993)

Experiments:
[1] = system: TS1 cells; assay: Internalization of bound labelled rIL-9 (resistance to acid induced dissociation); type: cell-based, mouse; conditions: TS1 cells saturated at 4° C. with 3.3×10^-10 M labelled rIL-9, then 37° C.; after about one hour; acid pH 3.0 (FIG. 5)
Protocol: It is known that when cytokines are mixed with their receptors at 37° C., they bind thereto when incubated and this is generally followed by internalization of the cytokine. This is determined via testing for increased resistance to acid induced dissociation of bound radiolabel.
To test this for the labeled rIL-9, 7×10^6 TS1 cell/ml were incubated at 4° C. in binding medium as described supra, but lacking Na3 N, with either 3.3×10^-10 M labelled rIL-9, or this concentration of the labelled cytokine plus a 100 fold excess of unlabeled rIL-9. This saturates the cells. After three hours of incubation, the cells were washed with cold binding medium to remove unbound ligand, and the cells were transferred to medium lacking rIL-9, at a temperature of 37° C. At various time intervals, the cells were incubated for two minutes with either of 360 ul of binding medium, or with citrate buffer (50 mM, pH 2.5). Contact with citrate buffer, in effect, exposed the cells to a pH of 3.0.

[2] = system: T helper clone TUC2.15; assay: IL-9 induced proliferation, thymidine incorporation; type: cell-based; conditions: resting TUC2.15 cells, saturating IL-9, thymidine incorporation day 3
Protocol: (§1) The correlation between IL-9 and proliferation of T4 cell lines in response to IL-9 was studied. Resting T cells were collected from two week cultures, and 2×10^6 cells were stimulated by antigen (KLH, 25 ug/ml) in the presence of 70×10^6 & spleen cells for four days. Blasts were isolated by centrifugation and IL-9 binding was determined following incubation with 7.5×10^-10 M labelled rIL-9. Resting cells which had not been restimulated were treated in parallel. Maximal IL-9 induced proliferation was measured by incubation of resting cells in microliter plates (50,000/well), either with or without saturating concentrations of IL-9. Radioactive thymidine incorporation, which was the manner in which proliferation was determined, was measured on day 3.

[3] = system: T helper clone TUC7.11; assay: as above; type: cell-based; conditions: resting TUC7.11 cells, saturating IL-9, thymidine incorporation day 3
Protocol: as §1

[4] = system: T helper clone TUC7.33; assay: as above; type: cell-based; conditions: resting TUC7.33 cells, saturating IL-9, thymidine incorporation day 3
Protocol: as §1

[5] = system: T helper clone TUC7.51; assay: as above; type: cell-based; conditions: resting TUC7.51 cells, saturating IL-9, thymidine incorporation day 3
Protocol: as §1

[6] = target: T1, IL-9R (Mus musculus, UniProt Q01114); assay: Cellular distribution of IL-9R: specific binding of 125I-labeled IL-9 to cell types; design: a number of different cell types were tested for the presence of the IL-9R molecule; endogenous in cells
T1 sequence (Q01114 38-468): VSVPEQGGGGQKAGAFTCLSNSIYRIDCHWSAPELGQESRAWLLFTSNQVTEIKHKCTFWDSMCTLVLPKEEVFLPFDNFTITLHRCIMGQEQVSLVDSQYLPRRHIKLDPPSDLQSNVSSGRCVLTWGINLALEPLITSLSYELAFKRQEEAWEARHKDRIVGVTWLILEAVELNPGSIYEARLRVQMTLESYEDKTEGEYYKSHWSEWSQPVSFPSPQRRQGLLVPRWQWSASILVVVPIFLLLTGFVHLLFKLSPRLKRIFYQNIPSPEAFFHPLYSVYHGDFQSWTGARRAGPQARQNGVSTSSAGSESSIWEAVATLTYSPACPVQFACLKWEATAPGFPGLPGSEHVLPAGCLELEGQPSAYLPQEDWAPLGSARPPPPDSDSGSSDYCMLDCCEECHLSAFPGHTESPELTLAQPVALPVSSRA
Protocol: The molecular nature of the IL-9R was studied via affinity cross linking experiments. In these, 5×10^6 cells (TS1)/ml were incubated for three hours at 4° C. in 140 ul of binding medium, either with 1.3×10^-10 M of labeled rIL-9, or the labeled cytokine mixed with 3.1×10^-8 M of the unlabeled material. After two washes with 1 ml of cold, phosphate buffered saline (PBS) at pH 7.4, cells were resuspended in 2.25 ml of cold PBS (pH 8.4), containing 1 mM MgCl2. Disuccinimidyl suberate, solubilized in dimethylsulfoxide, was added at a final concentration of 10 ug/ml. This cross links the cytokine to the cell. […] After a 30 minute incubation on ice, the reaction was quenched by adding 2.5 ml of cold 10 mM TRIS-HCl (pH 7.4) and 1 mM EDTA. The cells were centrifuged and the resulting pellet was resuspended in 50 ul of cold lysis buffer (Tris-HCl 126 mM, pH 7.5 containing 0.7% Triton-X100, 2 mM phenylmethylsulfonyl fluoride (PMSF)), 10 mM EDTA, 10 mM 2-mercaptoethanol, and, in some cases 0.2 mM pepstatin, 2 mM O-phenanthrolin and 0.1 mM leupeptin were included. […] Following extraction, the detergent mixture was incubated for 30 minutes on ice, with insoluble material being removed by centrifuging for 15 minutes at 10,000 rpm. Supernatant was boiled for 90 seconds in the presence of 3 mg/ml of SDS, and was diluted twice with lysis buffer.
Following the protocols of Example 5, a number of different cell types were tested for the presence of the IL-9R molecule.
±Cells were incubated with ^125 Ilabeled IL9.

IL-9: lymphokine interleukin-9, T-cell derived growth factor; in Tables II and III the 125I-labelled recombinant form is used
internalization of IL-9 [1]: most of the IL-9 was internalized
IL-9 induced proliferation Stimulatin Index [2]: 11.2
IL-9 induced proliferation Stimulatin Index [3]: 1.1
IL-9 induced proliferation Stimulatin Index [4]: 0.8
IL-9 induced proliferation Stimulatin Index [5]: 23.8
Specific Binding ([6]; B lymphocytes LPS-blasts, 125I-labeled IL-9 3.2 × 10^-10 M): -- (below detection limit (<10 mol/cell))
Specific Binding ([6]; B lymphocytes unstimulated, 125I-labeled IL-9 3.2 × 10^-10 M): -- (below detection limit (<10 mol/cell))
Specific Binding ([6]; B-cell hybridoma 7TD1, 125I-labeled IL-9 3.2 × 10^-10 M): -- (below detection limit (<10 mol/cell))
Specific Binding ([6]; CTL clone CTL P1:5, 125I-labeled IL-9 1.6 × 10^-10 M): -- (below detection limit (<10 mol/cell))
Specific Binding ([6]; CTL clone CTL P1:204, 125I-labeled IL-9 6.2 × 10^-11 M): -- (below detection limit (<10 mol/cell))
Specific Binding ([6]; CTL clone CTL P35:10, 125I-labeled IL-9 3.3 × 10^-10 M): -- (below detection limit (<10 mol/cell))
Specific Binding ([6]; CTL clone CTL P35:48, 125I-labeled IL-9 1.3 × 10^-10 M): -- (below detection limit (<10 mol/cell))
Specific Binding ([6]; CTL clone CTL P91:6, 125I-labeled IL-9 1.3 × 10^-10 M): -- (below detection limit (<10 mol/cell))
Specific Binding ([6]; Carcinoa 3LL (Lewis Lung), 125I-labeled IL-9 6.2 × 10^-11 M): -- (below detection limit (<10 mol/cell))
Specific Binding ([6]; Factor-dependent T cells ST2K9.4A2, 125I-labeled IL-9 4.1 × 10^-10 M): 1415 mol/cell
Specific Binding ([6]; Factor-dependent T cells TS1, 125I-labeled IL-9 5.6 × 10^-10 M): 2235 mol/cell
Specific Binding ([6]; Factor-dependent T cells TUC.51S1, 125I-labeled IL-9 1.3 × 10^-10 M): 663 mol/cell
Specific Binding ([6]; Fibroblasts A-9, 125I-labeled IL-9 6.2 × 10^-11 M): -- (below detection limit (<10 mol/cell))
Specific Binding ([6]; Fibrosarcoma MethA, 125I-labeled IL-9 6.2 × 10^-11 M): -- (below detection limit (<10 mol/cell))
Specific Binding ([6]; KLH-primed lymph nodes (C57B/6 mice), 125I-labeled IL-9 6.2 × 10^-10 M): -- (below detection limit (<10 mol/cell))
Specific Binding ([6]; Lymphoma LBRM-33-1A5, 125I-labeled IL-9 5.6 × 10^-10 M): 599 mol/cell
Specific Binding ([6]; Macrophages Bone marrow derived, 125I-labeled IL-9 4.1 × 10^-10 M): 195 mol/cell
Specific Binding ([6]; Macrophages P399D1, 125I-labeled IL-9 6.2 × 10^-11 M): 16 mol/cell
Specific Binding ([6]; Macrophages PU5-1,8, 125I-labeled IL-9 1.3 × 10^-10 M): 229 mol/cell
Specific Binding ([6]; Mast cell line L138.C, 125I-labeled IL-9 4.1 × 10^-10 M): 331 mol/cell
Specific Binding ([6]; Mast cell line L138.8A, 125I-labeled IL-9 4.1 × 10^-10 M): 2208 mol/cell
Specific Binding ([6]; Myeloid Cell Line DA-1, 125I-labeled IL-9 3.2 × 10^-10 M): 18 mol/cell
Specific Binding ([6]; Myeloid Cell Line Ea3,15, 125I-labeled IL-9 5.6 × 10^-10 M): -- (below detection limit (<10 mol/cell))
Specific Binding ([6]; Myeloid Cell Line FDC-P1, 125I-labeled IL-9 5.6 × 10^-10 M): -- (below detection limit (<10 mol/cell))
Specific Binding ([6]; Myelomonocytic leukemia WEHI.3B, 125I-labeled IL-9 7.5 × 10^-10 M): -- (below detection limit (<10 mol/cell))
Specific Binding ([6]; Normal lymph nodes, 125I-labeled IL-9 6.2 × 10^-10 M): -- (below detection limit (<10 mol/cell))
Specific Binding ([6]; Plasmacytoma TEPC1033C, 125I-labeled IL-9 3.2 × 10^-10 M): -- (below detection limit (<10 mol/cell))
Specific Binding ([6]; Spleen Cells, 125I-labeled IL-9 3.2 × 10^-10 M): -- (below detection limit (<10 mol/cell))
Specific Binding ([6]; T lymphocytes ConA-blasts, 125I-labeled IL-9 3.2 × 10^-10 M): -- (below detection limit (<10 mol/cell))
Specific Binding ([6]; T lymphocytes unstimulated, 125I-labeled IL-9 3.2 × 10^-10 M): -- (below detection limit (<10 mol/cell))
Specific Binding ([6]; T-cell leukemia L1210, 125I-labeled IL-9 5.6 × 10^-10 M): -- (below detection limit (<10 mol/cell))
Specific Binding ([6]; T-cell leukemia LEB, 125I-labeled IL-9 6.2 × 10^-11 M): -- (below detection limit (<10 mol/cell))
Specific Binding ([6]; T-cell leukemia TH1, 125I-labeled IL-9 5.6 × 10^-10 M): 273 mol/cell
Specific Binding ([6]; Thymocytes, 125I-labeled IL-9 3.2 × 10^-10 M): -- (below detection limit (<10 mol/cell))
Specific Binding ([6]; Thymoma BW5147, 125I-labeled IL-9 6.2 × 10^-10 M): 120 mol/cell
Specific Binding ([6]; Thymoma EL4.16, 125I-labeled IL-9 7.5 × 10^-10 M): 263 mol/cell
